We go through 28 substances from patent publication US20040053822A1.

The target of experiment [1] is HLA-A*0301 (human). As to the kind of experiment: competition vs 125I standard peptide, purified HLA-A*0301.
Experiment [2] has as its target HLA-A*0301 (human). As to the kind of experiment: competition with 125I probe peptide, purified HLA.
For another experiment, the target named is HLA-A2401 (human). The experiment is described as follows: inhibition of 125I probe peptide binding to purified HLA.
The target of experiment [3] is HLA-A*0301 (human). The experiment is described as follows: 125I-probe competition, purified HLA.
Another experiment addresses HLA-A*2401 (human). The experiment is described as follows: inhibition of 125I-labelled standard peptide binding to purified HLA.
In the next experiment the target is HLA-A*0203 (human). The experiment is described as follows: competition with 125I probe peptide, purified HLA.
Experiment [4] deals with HLA-A*6802 (human). The experiment is described as follows: competition with 125I probe peptide, purified HLA.
The target of experiment [5] is HLA-A*6802 (human). The experiment is described as follows: competition with 125I probe peptide, purified HLA, gel filtration. The following applies: scale: ratio. Background: Size exclusion chromatography separates by hydrodynamic size, large species first.

As for “MAGE3 peptide, position 118, 9 amino acids”, the relative binding ratio (ratio to standard peptide) in the experiment with HLA-A*0301 (human) [1] was 0.0016.

In general, IC50 refers to the concentration that inhibits the measured activity by half. In the case of MAGE2.71 11-mer … (peptide), in the experiment with HLA-A*0301 (human) [2], the IC50 worked out at 1000 nM.

“MAGE3 peptide, position 142, 9 amino acids”: in the experiment with HLA-A2401 (human), the relative binding ratio (IC50 standard/IC50 peptide) stood at 0.53.

For “MAGE2 and MAGE3 peptide, position 115, 9 amino acids”, in the experiment with HLA-A*0301 (human) [3], the relative binding ratio was found to be 0.0045.

Regarding “MAGE3 195-203 (position 195, 9 amino acids) (peptide)”, the relative binding ratio (IC50 standard peptide / IC50 test peptide) with HLA-A*2401 (human) stood at 0.42.

On to “MAGE3 142-150 (position 142, 9 amino acids) (peptide)”, for which the relative binding ratio (IC50 standard peptide / IC50 test peptide) with HLA-A*2401 (human) stood at 0.53.

As for “MAGE3 peptide, position 118, 10 amino acids”, the relative binding ratio (ratio to standard peptide) with HLA-A*0301 (human) [1] turned out to be 0.0014.

With “MAGE3 peptide, position 267, 10 amino acids”, in the experiment with HLA-A*0301 (human) [1], the relative binding ratio (ratio to standard peptide) amounted to 0.0032.

Take “MAGE3 peptide, position 300, 8 amino acids”: the relative binding ratio (IC50 standard/IC50 peptide) in the experiment with HLA-A2401 (human) is 0.042.

As to “MAGE3 peptide, position 97, 9 amino acids”, the relative binding ratio (IC50 standard/IC50 peptide) with HLA-A2401 (human) is 0.0049.

As to MAGE3.174 11-mer … (peptide), the IC50 with HLA-A*0203 (human) amounted to 769 nM; in the experiment with HLA-A*6802 (human) [4], 4490 nM.

For “MAGE3 150-160 (position 150, 11 amino acids) (peptide)”, in the experiment with HLA-A*2401 (human), the relative binding ratio (IC50 standard peptide / IC50 test peptide) amounted to 0.091.

As to “MAGE3 peptide, position 220, 9 amino acids”, the relative binding ratio in the experiment with HLA-A*6802 (human) [5] worked out at 0.0012.

Regarding “MAGE3 peptide, position 221, 11 amino acids”, the relative binding ratio (IC50 standard/IC50 peptide) with HLA-A2401 (human) was determined as 0.026.

On to “MAGE3 peptide, position 270, 9 amino acids”, for which the relative binding ratio (IC50 standard/IC50 peptide) with HLA-A2401 (human) was determined as 0.0006.

Consider “MAGE3 peptide, position 300, 10 amino acids”, for which, in the experiment with HLA-A2401 (human), the relative binding ratio (IC50 standard/IC50 peptide) amounted to 0.59.

On to “MAGE3 peptide, position 195, 10 amino acids”, for which, in the experiment with HLA-A2401 (human), the relative binding ratio (IC50 standard/IC50 peptide) amounted to 0.05.

“MAGE3 peptide, position 195, 9 amino acids”: in the experiment with HLA-A2401 (human), the relative binding ratio (IC50 standard/IC50 peptide) amounted to 0.42.

In the case of “MAGE3 97-105 (position 97, 9 amino acids) (peptide)”, the relative binding ratio (IC50 standard peptide / IC50 test peptide) in the experiment with HLA-A*2401 (human) amounted to 0.0049.

Take “MAGE3 peptide, position 150, 11 amino acids”: the relative binding ratio (IC50 standard/IC50 peptide) with HLA-A2401 (human) came to 0.091.

As to “MAGE3 221-231 (position 221, 11 amino acids) (peptide)”, in the experiment with HLA-A*2401 (human), the relative binding ratio (IC50 standard peptide / IC50 test peptide) came out at 0.026.

In turn, MAGE2.112 11-mer … (peptide) had an IC50 with HLA-A*6802 (human) [4] of 7690 nM.

“MAGE3 195-204 (position 195, 10 amino acids) (peptide)”: in the experiment with HLA-A*2401 (human), the relative binding ratio (IC50 standard peptide / IC50 test peptide) stood at 0.05.

For the substance “MAGE3 peptide, position 115, 9 amino acids”, the relative binding ratio (ratio to standard peptide) in the experiment with HLA-A*0301 (human) [1] is 0.0045.

With “MAGE3 300-309 (position 300, 10 amino acids) (peptide)”, the relative binding ratio (IC50 standard peptide / IC50 test peptide) with HLA-A*2401 (human) amounted to 0.59.

With “MAGE3 peptide, position 268, 11 amino acids”, in the experiment with HLA-A2401 (human), the relative binding ratio (IC50 standard/IC50 peptide) turned out to be 0.0004.

Regarding “MAGE3 300-307 (position 300, 8 amino acids) (peptide)”, the relative binding ratio (IC50 standard peptide / IC50 test peptide) with HLA-A*2401 (human) is 0.042.

On to “MAGE3 peptide, position 115, 10 amino acids”, for which, in the experiment with HLA-A*0301 (human) [1], the relative binding ratio (ratio to standard peptide) is 0.0066.
